PMC10527347 (Journal of molecular biology, 2023)
Where a chain is given by its changes, count along the chain named. In names and notes the source's numbering stands. Like-named read-outs stand apart in the source and are kept apart here.

Experiments:
[1] = molecular target: T1, Hsp90Ec N347C (E. coli, UniProt P0A6Z3 1-624, N347C); test: cross-linking
[2] = molecular target: T2, Hsp90Ec K199C (E. coli, UniProt P0A6Z3 1-624, K199C); test: cross-linking
[3] = molecular target: Hsp90Ec N350C (E. coli, UniProt P0A6Z3 1-624, N350C); test: cross-linking
[4] = molecular target: Hsp90Ec N347C/D80N (E. coli, UniProt P0A6Z3 1-624, N347C | D80N); test: cross-linking
[5] = molecular target: T1, Hsp90Ec N347C; test: cross-linking; remark: listed apart in the source
[6] = molecular target: the molecule itself; test: cross-linking
[7] = molecular target: T3, Hsp90Ec wild-type (E. coli, UniProt P0A6Z3 1-624); test: cross-linking
[8] = molecular target: T3, Hsp90Ec wild-type; test: BLI
[9] = molecular target: T2, Hsp90Ec K199C; test: cross-linking; remark: listed apart in the source
[10] = molecular target: Hsp90Ec K71C (E. coli, UniProt P0A6Z3 1-624, K71C); test: cross-linking
[11] = molecular target: Hsp90Ec K99C (E. coli, UniProt P0A6Z3 1-624, K99C); test: cross-linking
[12] = molecular target: Hsp90Ec K45C (E. coli, UniProt P0A6Z3 1-624, K45C); test: cross-linking
[13] = molecular target: Hsp90Ec K103C (E. coli, UniProt P0A6Z3 1-624, K103C); test: cross-linking
[14] = molecular target: Hsp90Ec K354C (E. coli, UniProt P0A6Z3 1-624, K354C); test: cross-linking
[15] = molecular target: Hsp90Ec K238C (E. coli, UniProt P0A6Z3 1-624, K238C); test: cross-linking
[16] = molecular target: T4, biotin-labeled Ydj1 (S. cerevisiae, UniProt P25491 1-409, biotin label (site not stated)); test: pull-down
T4 sequence (looked up): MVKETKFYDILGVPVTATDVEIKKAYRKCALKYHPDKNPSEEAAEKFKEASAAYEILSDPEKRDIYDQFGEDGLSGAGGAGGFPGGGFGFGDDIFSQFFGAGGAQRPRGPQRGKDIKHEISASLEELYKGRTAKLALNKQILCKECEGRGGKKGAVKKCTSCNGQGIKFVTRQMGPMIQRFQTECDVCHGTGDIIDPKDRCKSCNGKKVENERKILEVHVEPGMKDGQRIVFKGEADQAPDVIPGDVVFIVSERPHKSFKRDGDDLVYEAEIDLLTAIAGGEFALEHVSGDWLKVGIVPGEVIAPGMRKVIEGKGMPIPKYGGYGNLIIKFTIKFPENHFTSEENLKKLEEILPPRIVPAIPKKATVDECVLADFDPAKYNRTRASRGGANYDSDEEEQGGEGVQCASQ

B1: CbpA A44C (natural protein, E. coli, UniProt P36659 1-306, looked up)
chain: MELKDYYAIMGVKPTDDLKTIKTAYRRLARKYHPDVSKEPDAECRFKEVAEAWEVLSDEQRRAEYDQMWQHRNDPQFNRQFHHGDGQSFNAEDFDDIFSSIFGQHARQSRQRPATRGHDIEIEVAVFLEETLTEHKRTISYNLPVYNAFGMIEQEIPKTLNVKIPAGVGNGQRIRLKGQGTPGENGGPNGDLWLVIHIAPHPLFDIVGQDLEIVVPVSPWEAALGAKVTVPTLKESILLTIPPGSQAGQRLRVKGKGLVSKKQTGDLYAVLKIVMPPKPDENTAALWQQLADAQSSFDPRKDWGKA
[1]
  binding result: binds

B2: CbpA S57C (natural protein, E. coli, UniProt P36659 1-306, looked up)
chain: B1 chain with C44A, S57C
[1]
  binding result: binds

B3: CbpA E51C (natural protein, E. coli, UniProt P36659 1-306, looked up)
chain: B1 chain with C44A, E51C
[2]
  binding result: binds
[3]
  binding result: binds
[4]
  binding result: binds
[5]
  binding result: binds
[6]
  binding result: binds

B4: CbpA wild-type (natural protein, E. coli, UniProt P36659 1-306, looked up)
chain: B1 chain with C44A
[7]
  binding result: binds
[2]
  binding result: binds

B5: biotin-labeled DnaJ (natural protein, E. coli, UniProt P08622 1-376, looked up)
chain: MAKQDYYEILGVSKTAEEREIRKAYKRLAMKYHPDRNQGDKEAEAKFKEIKEAYEVLTDSQKRAAYDQYGHAAFEQGGMGGGGFGGGADFSDIFGDVFGDIFGGGRGRQRAARGADLRYNMELTLEEAVRGVTKEIRIPTLEECDVCHGSGAKPGTQPQTCPTCHGSGQVQMRQGFFAVQQTCPHCQGRGTLIKDPCNKCHGHGRVERSKTLSVKIPAGVDTGDRIRLAGEGEAGEHGAPAGDLYVQVQVKQHPIFEREGNNLYCEVPINFAMAALGGEIEVPTLDGRVKLKVPGETQTGKLFRMRGKGVKSVRGGAQGDLLCRVVVETPVGLNERQKQLLQELQESFGGPTGEHNSPRSKSFFDGVKKFFDDLTR
modifications: biotin label (site not stated)
[8]
  Kd: 3.6 ± 0.3 µM

B6: CbpA K22C (natural protein, E. coli, UniProt P36659 1-306, looked up)
chain: B1 chain with K22C, C44A
[9]
  binding result: binds
[10]
  binding result: binds
[11]
  binding result: binds
[12]
  binding result: binds
[13]
  binding result: binds
[14]
  binding result: binds
[15]
  binding result: binds
[1]
  binding result: binds

B7: Hsp82 wild-type (natural protein)
chain: not shown
[16]
  fold change in interaction, with L2 against without L2: ~2 fold
